{"source": "IntAct's records for PubMed 16824107", "parents": {"B1": {"name": "Cytochrome c biogenesis ATP-binding export protein CcmA (Escherichia coli (strain K12)), P33931 (parent)", "chain": "MGMLEARELLCERDERTLFSGLSFTLNAGEWVQITGSNGAGKTTLLRLLTGLSRPDAGEVLWQGQPLHQVRDSYHQNLLWIGHQPGIKTRLTALENLHFYHRDGDTAQCLEALAQAGLAGFEDIPVNQLSAGQQRRVALARLWLTRATLWILDEPFTAIDVNGVDRLTQRMAQHTEQGGIVILTTHQPLNVAESKIRRISLTQTRAA", "partner": "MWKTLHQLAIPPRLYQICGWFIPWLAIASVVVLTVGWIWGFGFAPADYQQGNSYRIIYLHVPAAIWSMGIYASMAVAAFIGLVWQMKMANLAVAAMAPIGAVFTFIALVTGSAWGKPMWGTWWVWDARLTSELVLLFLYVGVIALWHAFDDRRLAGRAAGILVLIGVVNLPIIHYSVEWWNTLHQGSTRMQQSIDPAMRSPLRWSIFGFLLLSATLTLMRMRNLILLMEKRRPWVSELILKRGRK"}, "B2": {"name": "Cytochrome c biogenesis ATP-binding export protein CcmA (Escherichia coli (strain K12)), P33931 (parent)", "chain": "B1 chain", "partner": "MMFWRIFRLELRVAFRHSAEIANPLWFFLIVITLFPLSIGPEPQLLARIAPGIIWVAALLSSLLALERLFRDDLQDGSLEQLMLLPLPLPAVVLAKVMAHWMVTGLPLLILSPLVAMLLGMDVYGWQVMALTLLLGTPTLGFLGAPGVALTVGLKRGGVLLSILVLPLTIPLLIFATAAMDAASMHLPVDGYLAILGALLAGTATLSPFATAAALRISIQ"}}, "data": [{"variants_of": "B1", "conditions": "with ccmc_ecoli ccmC", "values": [{"variant": "G132A", "effect of a mutation on the interaction": "with no effect"}]}, {"variants_of": "B2", "conditions": "with ccmb_ecoli ccmB", "values": [{"variant": "G132A", "effect of a mutation on the interaction": "with no effect"}]}]}
